Test results reported in patent US11497796B2, “Agents directed against a cis RGMa/neogenin interaction or lipid rafts and use of the same in methods of treatment” (UNIVERSITY HEALTH NETWORK, priority 2013, dated 2022).

System: brain after stroke
Assay: Cerebral focal ischemia model (MCA clot occlusion)
Type: in vivo, rat
Settings: daily injections
Experimental: In all experiments, female Sprague-Dawley rats weighing 200-250 g were used. Briefly, focal cerebral ischemia was induced by injection of a preformed clot into the MCA. The rats were initially anesthetized with 3.0% isoflurane and then maintained with 1.5% isoflurane in a mixture of 30:70 O2 and […] with a face mask during surgery. Body temperature was maintained at 37° C. in the normothermic rats with a heating pad for the duration of surgery and in the immediate postoperative period until the animal was fully recovered from anesthesia.
A 1.5-cm longitudinal incision was made in the midline of the ventral cervical skin. The right common carotid artery (CCA), right internal carotid artery (ICA), and right external carotid artery (ECA) were exposed. The distal portion of the ECA was ligated and cut. A modified polyethylene-10 catheter, filled with bovine thrombin (Thrombostat, TM Warner-Lambert Co.), was introduced into the lumen of the right ECA via a small puncture. Ten micro liters of blood was withdrawn into the catheter and retained for 15 minutes to allow formation of a clot. […] After returning to their cage, animals were monitored for normal recovery.
The infarct volume was expressed as a percentage of the total volume from the ipsilateral hemisphere. Brain edema was determined by calculating the volume difference between the 2 hemispheres and dividing by the volume of the left hemisphere.
Briefly, 7 days after MCA occlusion the anesthetized rats were killed. […] The images were analyzed and the determination of infarct volume and edema was blinded. The infarct volume was calculated using the following formula: Infarct volume=[left hemisphere volume−(the right hemisphere volume−measured infarct volume)]/left hemisphere volume.
Brain swelling was determined using the following formula: Swelling (edema)=(right hemisphere volume−left hemisphere volume)/left hemisphere volume. […]
Briefly, neurological deficits were determined using a modified Bederson's scoring system. […] Mortality was also recorded. […]

B1: 4Ig: four immunoglobulin-like domains of Neogenin, amino acids 1 to 383 of Accession No. AAC59662 (SEQ ID NO:1) (protein, listed as Gallus gallus)
chain: RSGPRSPLTGSVVRTFTPFYFLVEPMDILSVRGASVIMNCSSYCETPPKIEWKKDGTLLNLVSDDRRQLLPDGSLLINSVVHSKHNKPDEGYYQCVATVESLGSIVSRTAKLTVAGLPRFTSQPELSSVYKGNSAILNCEVNVDLAPFVRWEQDRQPLSLDDRVFKLPSGALLIGNATDTDGGFYRCVIESGGTPKYSEEAELKILPDPEEPQSLVFVRQPSSLTKVTGQNAVFPCVAGGFPTPYVRWTKNGEELITEDSERFALRAGGSLLISDVTEEDVGTYTCIADNENETIEAQAELAVQVPPEFLKRPANIYAHESMDIVFECEVTGKPTPTVKWVKNGDVVIPSDYFKIVKEHNLQVLGLVKSDEGFYQCIAENDVGNAQAGAQLIILDLDVAIPTLPPTSLTSATNDHLAPATTGPLPTAPRDVVATLVSTRFIRLTWRTPVSDPQGDNLTYSIFYTKEGINRERVENTSRPGETQVMIQNLMPETVYVFRVVAQNKHGHGESSAPLKVATQPEVQLPGPAPNIRAYAGSPTSVTVTWETPLSGNGEIQNYKLYYMEKGQDSEQDVDVAGLSYTITGLKKYTEYSFRVVAYNKHGPGVSTQDVVVRTLSDVPSAAPQNLTLEARNSKSIMLHWQPPPAGTHSGQITGYKIRYRKVSRKSDVTESVGGTQLFQLIEGLERGTEYNFRIAAMTVNGTGPATDWVSAETFESDLDESRVPEVPSSLHVRPLVTSIVVSWTPPENQNIVVRGYAIGYGIGSPHAQTIKVDYKQRYYTIENLDPSSHYVITLKAFNNVGEGIPLYESAVTRPHSDTSEVDLFVINAPYTPVPDPSPMMPPVGVQASILSHDTIRITWADNSLPKNQKITDARYYTVRWKTNIPANTKYKTANATTLSYLVTGLKPNTLYEFSVMVTKGRRSSTWSMTAHGTTFELVPTSPPKDVTVVSKEGKPRTIIVNWQPPSEANGKITGYIIYYSTDVNAEIHDWVIEPVVGNRLTHQIQELTLDTPYYFKIQARNSKGMGPMSEAVQFRTPKAESSDKMPNDQASGSAGKGSRPVDVGPDYKPPLSGSNSPHGSPTSPLDSNMLLVIIVSVGVITIVIVVIVAVFCTRRTTSHQKKKRAACKSVNGSHKYKGNSKDVKPPDLWIHHERLELKPIDKSPDPNPIMTDTPIPRNSQDITPVDNSMDSNIHQRRNSYRGHESEDSMSTLAGRRGMRPKMMMPFDSQPPQPVISAHPIHSLDNPHHHFHSGSLASPTRSYLHHQVSPWPVGTSMSHSDRANSTESVRNTPSSDTMPASSSQPCADHQDPDSSSGAYLGSAQEEDAAQSLPTAHVRPSHPLKSFAVPAVPAAGSAYDPTLPSTPLLTQQAPSHPVHSVKTASIGTLGRTRPPMPVVVPSAPDVQETTRMLEDSESSYEPDELTKEMAHLEGLMKDLNAITTA
modifications: Neogenin - Accession No. AAC59662
significantly reduced: brain edema compared to control | infarct volume compared to control | behavioral deficits compared to control (Bederson test)
